Data from patent US12303551B2, “Cellular immunotherapy compositions and uses thereof” (CERO THERPEUTICS HOLDINGS, INC., priority 2018, dated 2025).

B1: CER112: Chimeric engulfment receptor: Tim4 binding, Tim4 transmembrane, TRAF6 and NFAM1 signaling; SEQ ID NO: 148 (protein)
chain: MSKGLLLLWLVTELWWLYLTPAASEDTIIGFLGQPVTLPCHYLSWSQSRNSMCWGKGSCPNSKCNAELLRTDGTRIISRKSTKYTLLGKVQFGEVSLTISNTNRGDSGVYCCRIEVPGWFNDVKKNVRLELRRATTTKKPTTTTRPTTTPYVTTTTPELLPTTVMTTSVLPTTTPPQTLATTAFSTAVTTCPSTTPGSFSQETTKGSAFTTESETLPASNHSQRSMMTISTDIAVLRPTGSNPGILPSTSQLTTQKTTLTTSESLQKTTKSHQINSRQTILIIACCVGFVLMVLLFLAFLMSLLNCENSCGSSQSESDCCVAMASSCSAVTKDDSVGGTASTGNLSSSFMEEIQGYDVEFDPPLESKYECPICLMALREAVQTPCGHRFCKACIIKSIRDAGHKCPVDNEILLENQLFPDNFAKREILSLMVKCPNEGCLHKMELRHLEDHQAHCEFALMDCPQCQRPFQKFHINIHILKDCPRRQVSCDNCAASMAFEDKEIHDQNCPLANVICEYCNTILIREQMPNHYDLDCPTAPIPCTFSTFGCHEKMQRNHLARHLQENTQSHMRMLALWNKKRMRGPGKDPTRKCPDPRSASSPKQHPSESVYTALQRRETEVYACIENEDGSSPTAKQSPLSQERPHRFEDDGELNLVYENL
modifications: CER112, amino acids 1-22 are signal peptide
B2: CER114: Chimeric engulfment receptor: Tim4 binding, Tim4 transmembrane, TRAF6 and MERTK signaling; SEQ ID NO: 150 (protein)
chain: MSKGLLLLWLVTELWWLYLTPAASEDTIIGFLGQPVTLPCHYLSWSQSRNSMCWGKGSCPNSKCNAELLRTDGTRIISRKSTKYTLLGKVQFGEVSLTISNTNRGDSGVYCCRIEVPGWFNDVKKNVRLELRRATTTKKPTTTTRPTTTPYVTTTTPELLPTTVMTTSVLPTTTPPQTLATTAFSTAVTTCPSTTPGSFSQETTKGSAFTTESETLPASNHSQRSMMTISTDIAVLRPTGSNPGILPSTSQLTTQKTTLTTSESLQKTTKSHQINSRQTILIIACCVGFVLMVLLFLAFLMSLLNCENSCGSSQSESDCCVAMASSCSAVTKDDSVGGTASTGNLSSSFMEEIQGYDVEFDPPLESKYECPICLMALREAVQTPCGHRFCKACIIKSIRDAGHKCPVDNEILLENQLFPDNFAKREILSLMVKCPNEGCLHKMELRHLEDHQAHCEFALMDCPQCQRPFQKFHINIHILKDCPRRQVSCDNCAASMAFEDKEIHDQNCPLANVICEYCNTILIREQMPNHYDLDCPTAPIPCTFSTFGCHEKMQRNHLARHLQENTQSHMRMLAALRRRVQETKFGGAFSEEDSQLVVNYRAKKSFCRRAIELTLQSLGVSEELQNKLEDVVIDRNLLVLGKVLGEGEFGSVMEGNLKQEDGTSQKVAVKTMKLDNFSQREIEEFLSEAACMKDFNHPNVIRLLGVCIELSSQGIPKPMVILPFMKYGDLHTFLLYSRLNTGPKYIHLQTLLKFMMDIAQGMEYLSNRNFLHRDLAARNCMLRDDMTVCVADFGLSKKIYSGDYYRQGRIAKMPVKWIAIESLADRVYTSKSDVWAFGVTMWEITTRGMTPYPGVQNHEMYDYLLHGHRLKQPEDCLDELYDIMYSCWSADPLDRPTFSVLRLQLEKLSESLPDAQDKESIIYINTQLLESCEGIANGPSLTGLDMNIDPDSIIASCTPGAAVSVVTAEVHENNLREERYILNGGNEEWEDVSSTPFAAVTPEKDGVLPEDRLTKNGVSWSHHSTLPLGSPSPDELLFVDDSLEDSEVLM
modifications: CER114, amino acids 1-22 are signal peptide
B3: CER113: Chimeric engulfment receptor: Tim4 binding, Tim4 transmembrane, TRAF6 and Baff-R signaling; SEQ ID NO: 149 (protein)
chain: MSKGLLLLWLVTELWWLYLTPAASEDTIIGFLGQPVTLPCHYLSWSQSRNSMCWGKGSCPNSKCNAELLRTDGTRIISRKSTKYTLLGKVQFGEVSLTISNTNRGDSGVYCCRIEVPGWFNDVKKNVRLELRRATTTKKPTTTTRPTTTPYVTTTTPELLPTTVMTTSVLPTTTPPQTLATTAFSTAVTTCPSTTPGSFSQETTKGSAFTTESETLPASNHSQRSMMTISTDIAVLRPTGSNPGILPSTSQLTTQKTTLTTSESLQKTTKSHQINSRQTILIIACCVGFVLMVLLFLAFLMSLLNCENSCGSSQSESDCCVAMASSCSAVTKDDSVGGTASTGNLSSSFMEEIQGYDVEFDPPLESKYECPICLMALREAVQTPCGHRFCKACIIKSIRDAGHKCPVDNEILLENQLFPDNFAKREILSLMVKCPNEGCLHKMELRHLEDHQAHCEFALMDCPQCQRPFQKFHINIHILKDCPRRQVSCDNCAASMAFEDKEIHDQNCPLANVICEYCNTILIREQMPNHYDLDCPTAPIPCTFSTFGCHEKMQRNHLARHLQENTQSHMRMLASWRRRQRRLRGASSAEAPDGDKDAPEPLDKVIILSPGISDATAPAWPPPGEDPGTTPPGHSVPVPATELGSTELVTTKTAGPEQQ
modifications: CER113, amino acids 1-22 are signal peptide

Tests used:
SCC152 cells = test: Elimination of GFP-expressing SCC152 target cells over time (quantification and time lapse imaging); format: cell-based; details: for elimination of SCC152 cells, time lapse imaging: 0 to 36 hrs, compared to the control; for elimination of SCC152 cells (GFP quantification): by 36 hrs, 1:1:1 ratio (CD8:CD4:target cell), compared to control
In short: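 GFP-labelled SCC152 (HPV16+) target cells were co-cultured at 1:1:1 with CD8+ T cells carrying an HPV16 E7 TCR and with CD4+ T cells transduced with a chimeric CER or a control. Remaining target cells were counted by fluorescence imaging and automated software at 0, 12, 24, 36 h or 0, 24, 48 h.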

SCC152 target cells = test: Phagocytosis of SCC152 by CD4+ T cell/CER, fluorescence microscopy with hybrid capture; format: cell-based; details: TRAF-domain CERs, 4 hours, 1:1:0.5 (CD8:CD4:target cell); versus CD4+ control + CD8+/E7 TCR
Experimental: FIG. 28 is a bar graph representing quantification of CD4+ T cell-CER mediated phagocytosis of SCC152 target cells. Results calculated as ((number of phagocytic target events)/(total number of effectors))*100 from 3×3 40× images, 4 hours after initiation of co-culture assay. CD8+ T cells transduced with HPV16 E7 TCR and CD4+ T cells transduced with selected CERs (CER5, CER17, CER19, CER21, CER23, CER26, CER27, CER103b, CER104, CER105, CER106, or CER116) were co-cultured with SCC152 squamous head and neck carcinoma target cells at a 1:1:0.5 ratio for 4 hours and imaged.
FIG. 29 is a bar graph representing quantification of CD4+ T cell-CER mediated phagocytosis of SCC152 target cells. Results calculated as (median area ratio of target events in effector cells*% phagocytosis) from 3×3 40× images, 4 hours after initiation of co-culture assay. CD8+ T cells transduced with HPV16 E7 TCR and CD4+ T cells transduced with selected CERs (CER5, CER17, CER19, CER21, CER23, CER26, CER27, CER103b, CER104, CER105, CER106, or CER116) were co-cultured with SCC152 squamous head and neck carcinoma target cells at a 1:1:0.5 ratio for 4 hours and imaged.
(§1) FIG. 55 is a bar graph representing quantification of CD4+ T cell-CER mediated phagocytosis of SCC152 target cells. Percent phagocytosis was calculated as ((number of phagocytic target events)/(total number of effector cells))*100. These numbers were calculated from 3×3 images captured by Keyence BZ-X710 fluorescence microscope at 40× resolution, 4 hours after initiation of co-culture assay. CD8+ T cells transduced with HPV16 E7 TCR and CD4+ T cells transduced with a selected CER (CER29, CER30, CER110, CER112, CER113, CER114, CER116, or CER117) were co-cultured with SCC152 target cells at a 1:1:0.5 ratio (CD8:CD4:target cell) for 4 hours and imaged.
as §1, with “56” for “55”, “Adjusted phagocytic index” for “Percent phagocytosis”, “(median area ratio” for “((number”, “of” for “of phagocytic”, “events in” for “events)/(total number of”, “cells*% phagocytosis).” for “cells))*100.”
Phagocytic activity of CD4+ T cell/CER+CD8+ T cell/HPV16 E7 TCR combinations co-cultured with SCC152 cells was visualized and quantified using KEYENCE BZ-X710 fluorescence microscope, […] and hybrid capture software.

| Molecule | elimination of SCC152 cells, time lapse imaging (SCC152 cells) | elimination of SCC152 cells (GFP quantification) (SCC152 cells) | engulfment of SCC152 target cells (percent phagocytosis, adjusted phagocytic index) (SCC152 target cells) |
| --- | --- | --- | --- |
| B1 | enhanced elimination of SCC152 cells | nearly complete elimination | enhanced engulfment |
| B2 | enhanced elimination of SCC152 cells | nearly complete elimination | enhanced engulfment |
| B3 | enhanced elimination of SCC152 cells | nearly complete elimination | enhanced engulfment |
